Where no end group is shown, it is not given here. The star is where a group is joined. Biotin = O=C1N[C@H]2[C@H](CS[C@H]2CCCCC(=O)*)N1
How the values were obtained:
[1] = biological target: T1, EGFR fragment 475-621 displayed on yeast (human, UniProt P00533 499-645); assay: flow cytometry on yeast-displayed, c-myc-tagged EGFR fragment (native)
T1 construct: yeast surface display, C-terminal c-myc tag
Experimental: (§1) Briefly, transformed colonies were grown at 30° C. in minimal media containing yeast nitrogen base, casein hydrolysate, dextrose, and phosphate buffer pH 7.4, on a shaking platform for approximately one day until an OD₆₀₀ of 5-6 was reached. […] Cultures were then stored at 4° C. until analysis. […] The cells were then washed with ice cold FACS buffer and incubated with phycoerythrin-labelled anti-mouse IgG (1:25 dilution), in a final volume of 50 μl for 1 h at 4° C., protected from light. After washing the yeast cells with ice-cold FACS buffer, fluorescence data was obtained with a Coulter Epics XL flow cytometer (Beckman-Coulter), and analyzed with WinMDI cytometry software (J. Trotter, Scripps University). For determination of linear versus conformational epitopes, yeast cells were heated at 80° C. for 30 min, then chilled on ice 20 min prior to labeling with antibodies.

[2] = biological target: T2, Peptide C: LEEKKGNYVVTDH(K-Biot)-OH (biotin on the added C-terminal Lys (K-Biot)); assay: BIAcore, Peptide C on streptavidin chip
T2 construct: also called C-terminal biotinylated de2-7 peptide
T2 peptide: LEEKKGNYVVTDHK
Experimental: Serial dilutions of mAbs were tested for reactivity with the peptide. Blocking experiments using non-biotinylated peptide were performed to assess specificity.

[3] = biological target: T3, anti-idiotype antibody LMH-12; assay: sandwich ELISA: plate coated with 10 µg/ml LMH-12, detection with biotinylated LMH-12 (10 µg/ml), avidin-HRP and ABTS
T3 construct: mouse IgG1 kappa

[4] = biological target: T4, de2-7 EGFR unique junctional peptide (human); assay: dot-blot immune stain
T4 construct: non-biotinylated; also called Junction Peptide
T4 peptide: LEEKKGNYVVTDH-OH
Experimental: Dot-blot immune stain experiments were also performed. Serial dilutions of peptide were spotted in 0.5 μl onto a PVDF or nitrocellulose membranes.

[5] = biological target: T5, EGFR fragment 1-294 displayed on yeast (human, UniProt P00533 25-318); assay: flow cytometry on yeast-displayed, c-myc-tagged EGFR fragment (native), indirect immunofluorescence
T5 construct: yeast surface display, C-terminal c-myc tag
Experimental: as §1

[6] = biological target: T6, biotinylated de2-7 specific peptide Biotin-LEEKKGNYVVTDH (human); assay: ELISA on biotinylated peptide on streptavidin plates
T6 construct: also called unique de2-7 EGFR peptide
T6 peptide: Biotin-LEEKKGNYVVTDH
Experimental: Two types of ELISA were used to determine the specificity of the antibodies. […] Antibodies were added to wells in triplicate at increasing concentration in 2% HSA in phosphate-buffered saline (PBS).
Antibodies were bound and detected as in the first assay.

[7] = biological target: T7, EGFR fragment 1-176 displayed on yeast (human, UniProt P00533 25-200); assay: flow cytometry on yeast-displayed, c-myc-tagged EGFR fragment (native); fragment printed '1-716' on the sheet, 1-176 in the text
T7 construct: yeast surface display, C-terminal c-myc tag
Experimental: as §1

B1: mAb806 (antibody, V domains shown)
VH: DVQLQESGPSLVKPSQSLSLTCTVTGYSITSDFAWNWIRQFPGNKLEWMGYISYSGNTRYNPSLKSRISITRDTSKNQFFLQLNSVTIEDTATYYCVTAGRGFPYWGQGTLVTVSA
VL: DILMTQSPSSMSVSLGDTVSITCHSSQDINSNIGWLQQRPGKSFKGLIYHGTNLDDEVPSRFSGSGSGADYSLTISSLESEDFADYYCVQYAQFPWTFGGGTKLEIKR
notes: murine IgG2b
binding result [1]: no binding (tested: 10 µg/ml) | binding result [2]: no binding (tested: 100 nM) | EC50 (read off the curve) [3]: ~0.07 µg/mL | binding result [4]: no binding | binding result [5]: no binding (tested: 10 µg/ml) | binding result [6]: no binding | binding result [7]: no binding (tested: 10 µg/ml)
